Experimental data published in US20240400689A1 (ANTENGENE BIOLOGICS, published 2024).

T1: human CD276 protein (human, UniProt Q5ZPR3 29-534)
T1 construct: whole, on cells; for SKOV3 and the other cancer lines the protein is the cells' own; also called B7-H3; B7H3
T1 sequence (looked up): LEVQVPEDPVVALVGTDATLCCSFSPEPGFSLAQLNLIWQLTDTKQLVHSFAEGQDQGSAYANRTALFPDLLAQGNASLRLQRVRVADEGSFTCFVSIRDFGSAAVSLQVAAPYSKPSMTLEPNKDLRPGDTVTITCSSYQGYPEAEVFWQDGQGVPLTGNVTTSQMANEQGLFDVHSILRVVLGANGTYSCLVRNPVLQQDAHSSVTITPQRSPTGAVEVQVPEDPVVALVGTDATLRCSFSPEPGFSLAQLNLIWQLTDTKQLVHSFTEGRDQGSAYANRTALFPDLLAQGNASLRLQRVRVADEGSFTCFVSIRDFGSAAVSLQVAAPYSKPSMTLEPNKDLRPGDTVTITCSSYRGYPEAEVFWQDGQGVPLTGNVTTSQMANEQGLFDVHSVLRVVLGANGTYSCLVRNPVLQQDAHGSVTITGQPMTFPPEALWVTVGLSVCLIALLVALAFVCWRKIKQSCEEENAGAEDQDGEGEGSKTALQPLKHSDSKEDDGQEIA

T2: HUMAN B7H3 (Biacore analyte) (human, UniProt Q5ZPR3 29-461, limits assumed)
T2 construct: also called hB7H3
T2 sequence (looked up): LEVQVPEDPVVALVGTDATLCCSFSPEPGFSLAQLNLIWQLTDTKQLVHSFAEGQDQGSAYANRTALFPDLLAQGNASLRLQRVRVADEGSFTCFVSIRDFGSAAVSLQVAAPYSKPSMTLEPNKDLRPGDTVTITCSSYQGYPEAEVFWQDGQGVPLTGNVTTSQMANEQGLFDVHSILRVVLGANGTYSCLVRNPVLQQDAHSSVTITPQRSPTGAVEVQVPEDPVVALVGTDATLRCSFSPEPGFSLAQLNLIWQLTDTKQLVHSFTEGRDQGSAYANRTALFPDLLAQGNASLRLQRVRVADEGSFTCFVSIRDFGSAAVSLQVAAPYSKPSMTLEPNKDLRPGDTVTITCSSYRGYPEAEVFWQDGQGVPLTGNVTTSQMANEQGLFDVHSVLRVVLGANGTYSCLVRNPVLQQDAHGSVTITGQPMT


Experiments:
[1] = molecular target: T1, human CD276 protein; test: FACS on SKOV3 cells
Outline: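 Human IgG1 chimeric antibodies were tested for binding to trypsin-detached SKOV3 ovarian cancer cells by flow cytometry, with cells washed in FACS buffer and kept in the dark before acquisition. Titration read-out was MFI plotted against antibody concentration (nM).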

[2] = molecular target: T2, HUMAN B7H3 (Biacore analyte); test: SPR, Biacore 8K, antibody captured, B7H3 as analyte, 1:1 binding
[3] = molecular target: T1, human CD276 protein; test: cell-based or functional assay
[4] = molecular target: T1, human CD276 protein; test: cell-based or functional assay; remark: listed apart in the source
[5] = molecular target: T1, human CD276 protein; test: cell-based or functional assay; remark: listed apart in the source
[6] = molecular target: T1, human CD276 protein; test: FACS titration on SKOV3 cells (MFI against Conc. (nM)); unit taken from the concentration axis

| EC50 [1] [µg/mL] | MFI (Max) [1] | Kd [2] [nM] | koff [2] [s⁻¹] | kon [2] [M⁻¹ s⁻¹] | EC50 of antibody induced ADCC effect on SKOV3 [3] [µg/mL] | EC50 of antibody induced CDC effect [4] [nM] | EC50 [6] [nM] | Binder | Top cytotoxicity (%), CDC [4] [%] | IC50 of indirect ADC cytotoxicity on SKOV3 [5] [nM] |
| --- | --- | --- | --- | --- | --- | --- | --- | --- | --- | --- |
| 2.03 | 3480 | 1.2 | 0.000243 | 203000 | 0.123 | 2.42 | – | 25-C8-D7-C5 (human IgG1 chimeric antibody) (antibody, V domains shown, human IgG1 chimeric antibody of the mouse clone) VH: EVQLQESGGGLVKPGGSLKFSCAASGFTFSTYAMSWVRQTPEKRLEWVATISGGGIDTYYPDSVKGRFTISRDNAKNTLYLQMNSLRSEDTAMYYCARQGSKGWGAMDYWGQGTSVTVSS VL: QIVLTQSPAIMSASPGEKVTMTCRASSSVSFMHWYQQKSGTSPKRWIYETSKLASGVPDRFSGSGSGTSYSLTISSMEAEDAATYYCQQWSSNPLTFGAGTKLELK | 91.4 | 0.018 |
| 0.286 | 4610 | 0.489 | 0.000239 | 489000 | 0.503 | 2.44 | – | 18-F9-D8-G7 (human IgG1 chimeric antibody) (antibody, V domains shown, human IgG1 chimeric antibody of the mouse clone) VH: EVQLQQSGPELVRPGVSVKISCKGSGYTFTDYAMHWVKQSHAQSLEWIGIINTYSGDTNYNQKFKGKATMTVDKSSSTAYMGLARLTSEDSAIFYCARGGGNYPYWYFDVWGAGTTVTVSS VL: ENVLTQSPAIMSASPGEKVTMTCRASSSVSSSYLHWYQQKSGDSPKLWIYSTSNLASGVPARFSGSGSGTSYSLTISSVEAEDAATYYCQQFSVYPLTFGAGTKLEIK | 70.3 | 0.014 |
| 0.982 | 3380 | 0.855 | 0.000222 | 260000 | 0.0177 | 1.69 | – | 7-E1-F8-F6 (human IgG1 chimeric antibody) (antibody, V domains shown, human IgG1 chimeric antibody of the mouse clone) VH: QVQLQQSGPELVKPGASVQMSCKASGYTFTDYVISWVNQRTGQGLEWIGEIYPRSGNTYYNEKFKGKATLTADKSSNTAYMQLSSLTSEDSAVYFCARFDIAYSFDYWGQGTTLTVSS VL: DVVMTQTPLSLPVSLGDQASISCRSTQSLVHSNGVTYLHWYLQKPGQSPKLLIYKVSNRFSGVPDRFSGSGSGTDFTLKISRVEAEDLGVYFCSQGTHVPWTFGGGTKLEIK | 91.9 | 0.028 |
| 0.186 | 5350 | 0.645 | 0.000243 | 377000 | 0.00664 | 1.28 | – | 16-C6-F7-F5 (human IgG1 chimeric antibody) (antibody, V domains shown, human IgG1 chimeric antibody of the mouse clone) VH: QIQLVQSGPEVKKPGETVKISCKASGYTFTKYGINWVKQAPGEGLKWMGWIWTYTGKPTYGDDFKGRFAFSLETSASTAYLQISDLKIEDMATYFCARDDGYYYTMNYWGQGTSVTVSS VL: DIVMTQTPLSLPVSLGDQASISCRSSQSLLHTNGDTYLHWYLQKAGQPPKLLIYKVSNRFSGVPDRFSGSGSGTDFTLKISRVEAEDLGVYFCSQSTHIPWTFGGGTKLEIK | 92.1 | 0.009 |
| 0.402 | 2830 | 0.749 | 0.000348 | 464000 | 0.0668 | 1.57 | – | 6-D8-E7-A11 (human IgG1 chimeric antibody) (antibody, V domains shown, human IgG1 chimeric antibody of the mouse clone) VH: QVHLQQPGAELVKPGASVKLSCKASGYTFTNYWMHWVKRRPGQGLEWIGMIHPNSGTTSFNEKFKSKATLTVDKSSSTAYMQLSSLTSEDSAVYYCAGYYGSSFSWFTYWGQGTLVTVSA VL: QAVVTQESALTTSPGGTVILTCRSSTGAVTTSNFANWVQEKPDHLFTGLIGGTSNRAPGVPVRFSGSLIGDKAALTITGAQTEDDAMYFCALWYSTHYVFGGGTKVTVL | 92.5 | 0.008 |
| 0.791 | 3110 | 0.555 | 0.000282 | 508000 | 0.263 | 1.92 | – | 20-A2-D10-G8 (human IgG1 chimeric antibody) (antibody, V domains shown, human IgG1 chimeric antibody of the mouse clone) VH: QVQLQQSGPELVRPGVSVKISCKGSGYTFTDYTMHWVKESHAQSLEWIGVISTYYGNTNYNQNFKGKATLTVDKSSSTAYMELAGLTSEDSAIYYCARASYGSGYGPYYWYFDVWGAGTTVTVSS VL: DIQMTQSPASLFASVGETVTITCRASEKIYSYLAWYFQKQGKSPQFLVYNANALAEGVPSRFSGSGSGTQFSLKIKSLQPEDFGTYYCQHHYGSPVTFGAGSKLELK | 85.1 | 0.007 |
| 0.293 | 2140 | 0.399 | 0.000196 | 492000 | 0.697 | 7.54 | – | 15-C8-B5-G7 (human IgG1 chimeric antibody) (antibody, V domains shown, human IgG1 chimeric antibody of the mouse clone) VH: QVQLQQPGAELVKPGASVKLSCKASDYTFTSHWMHWVKQRPGQGLEWIGMIHPNSGTTHYNENFKNKATLTVDNSSSTAYMQLSSLTSEDSAVYYCAWGSSNSYFYAMAYWGQGTSVTVSS VL: QAVVTQESALTTSPGETVTLTCRSSTGAVTTSNYANWVQEKPAHLFTGLIGGTNNRAPGVPARFSGSLIGDKAALTITGAQTEDEAIYFCALWFSNHLVFGGGTKLTVL | 86.1 | 0.008 |
| – | – | – | – | – | – | – | 9.64 | mVH-mVL1-30 (antibody, V domains shown) VH: EVQLVESGPGLVKPSQSLSLTCTVTGYSITSDYAWNWIRQFPGNKLEWMGYISHSGSTSYNPSLKSRISITRDTSKNQFFLQLNSVTTEDTATYYCARSLGRRWYFDVWGAGTTVTVSS VL: DIVMTQSPSSLAMSVGQKVTLSCKSSQSLLQSSTQKNYLAWYQQKPGQSPKLLVYFASTRDSGVPDRFIGSGSGTEFTLTISSVQAEDLADYFCQQHYIIPFTFGAGTKLEIK | – | – |
| 1.27 | 3450 | 2.31 | 0.00025 | 108000 | 0.0372 | 2.41 | – | 25-D3-G4-C6 (human IgG1 chimeric antibody) (antibody, V domains shown, human IgG1 chimeric antibody of the mouse clone) VH: EIQLQQTGPELVKPGASVKISCKASGYSFTDYIILWVKQSHGMSLEWIGNINPYYNSTYYNLKFKGKATLTVDKSSSTAYMQLDSLTSEDSAVYYCARDSFDWYFGVWGAGTTVTVSS VL: DVVMTQTPLSLPVSLGDQASISCRSSQSLVHSNGNTYLHWYLQKPGQSPKLLIYKVSNRFSGVPDRFSGSGSGTDFTLKISRVETEDLGIYFCSQSTHVPPLTFGAGTKLELK | 89.7 | 0.023 |
| – | – | – | – | – | – | – | 11.3 | hVH1-hVL5-30 (antibody, V domains shown) VH: QVQLQESGPGLVKPSQTLSLTCTVSGYSITSDYAWNWIRQHPGKGLEWIGYISHSGSTSYNPSLKSRVTISRDTSKNQFSLKLSSVTAADTAVYYCARSLGRRWYFDVWGQGTTVTVSS VL: DIVMTQSPLSLPVTPGEPASISCKSSQSLLNSSTQKNYLAWYLQKPGQSPQLLIYFASTRDSGVPDRFSGSGSGTDFTLKISRVEAEDLGVYFCQQHYIIPFTFGQGTKLEIK | – | – |
| – | – | – | – | – | – | – | 9.51 | hVH2-hVL1-30 (antibody, V domains shown) VH: QVQLQESGPGLVKPSETLSLTCTVSGYSITSDYAWNWIRQPPGKGLEWIGYISHSGSTSYNPSLKSRVTISRDTSKNQFSLKLSSVTAADTAVYYCARSLGRRWYFDVWGQGTTVTVSS VL: DIQMTQSPSSLSASVGDRVTITCKSSQSLLNSSTQKNYLAWYQQKPGKAPKLLIYFASTRDSGVPSRFSGSGSGTDFTLTISSLQPEDLATYFCQQHYIIPFTFGQGTKLEIK | – | – |
| – | – | – | – | – | – | – | 6.37 | hVH3-hVL5-30 (antibody, V domains shown) VH: QVQLQESGPGLVKPSETLSLTCTVSGYSITSDYAWNWIRQPPGKGLEWIGYISHSGSTSYNPSLKSRVTISRDTSKNQFSLKLSSVTAADTAVYYCARSLGRRWYFDVWGQGTTVTVSS VL: DIVMTQSPLSLPVTPGEPASISCKSSQSLLNSSTQKNYLAWYLQKPGQSPQLLIYFASTRDSGVPDRFSGSGSGTDFTLKISRVEAEDLGVYFCQQHYIIPFTFGQGTKLEIK | – | – |
| – | – | – | – | – | – | – | 8.52 | hVH4-hVL5-30 (antibody, V domains shown) VH: QVQLQESGPGLVKPSQTLSLTCAVYGYSITSDYAWNWIRQPPGKGLEWIGYISHSGSTSYNPSLKSRVTISRDTSKNQFSLKLSSVTAADTAVYYCARSLGRRWYFDVWGQGTTVTVSS VL: DIVMTQSPLSLPVTPGEPASISCKSSQSLLNSSTQKNYLAWYLQKPGQSPQLLIYFASTRDSGVPDRFSGSGSGTDFTLKISRVEAEDLGVYFCQQHYIIPFTFGQGTKLEIK | – | – |
